Assay [1] has as its system full-length PLCγ1 R586L or R694L. Nature of the assay: GST-pulldown, full-length PLCγ1 R586L or R694L. Type of assay: binding. The settings on record: phosphorylated; full-length PLCγ1, HEK 293T; versus WT. How it is done: Fig 3 Contribution of individual PLCγ1 SH2 domains to the interaction with phosphorylated pK15. The pK15 CT fused to GST, its Y^481F mutant, or GST alone were bound to glutathione beads, phosphorylated in vitro (+) or left unphosphorylated (-), and a GST pulldown was performed 32h after transfection into HEK-293T cells of expression vectors for S-tagged full-length PLCγ1 (FL) (A) or PLCγ1 SA (B) containing the indicated mutations. (C) pK15 CT WT, its Y^481F mutant or GST were bound to glutathione beads, phosphorylated in vitro (+) or left unphosphorylated (-), and used for a GST pulldown assay 32h after transfecting HEK 293T cells with expression vectors for S-tagged individual PLCγ1 nSH2 or cSH2 domains. […]
HEK293T cells were washed once with cold PBS 30 hours after transfection, lysed in IP buffer (50 mM Tris pH7.6, 60 mM NaCl, 6.25 mM EDTA, 1% (v/v) glycerol, 0.04% (v/v) NP-40) on ice for 30 minutes, sonicated shortly and cleared by centrifugation for 10 minutes at 20.000g, 4°C. […] Beads were then washed 5 times in 500 μl IP buffer (or for purified proteins IP buffer with 200 mM NaCl), suspended in 10 μl of 5x Laemmli sample buffer (60 mM Tris pH6.8, 24% (v/v) glycerol, 2% (v/v) SDS, 5% (v/v) β-mercaptoethanol, 0.01% Bromphenol Blue) and analysed by western blot.

The subject of assay [2] is PLCγ1 cSH2 domain. As to the kind of experiment: AlphaLISA, isolated PLCγ1 cSH2. Type of assay: binding. The settings on record: phosphorylated, 300 nM each protein, domain tested individually. How it is done:
(§1) Fig 4 The PLCγ1 cSH2 domain is required for the binding of PLCγ1 to phosphorylated pK15 in vitro and may serve as a dominant-negative inhibitor. GST-fused pK15 cytoplasmic tail WT (A), or its truncated mutant N2 [51] (B), were phosphorylated in vitro by 2xStrep-Src and an AlphaLISA was performed with the indicated His-tagged fragments of PLCγ1. Mean and standard deviation from at least two independent experiments with two technical replicates each are depicted. GST fusion proteins of the N1 (C) or N2 (D) truncation mutants of the pK15 cytoplasmic tail were phosphorylated in vitro by 2xStrep-Src and their interaction with recombinant purified PLCγ1 tSH2 (tandem SH2) or SA (γ-specific array) domains was measured by AlphaLISA in the presence of increasing concentrations (300 nM, 600 nM, 900 nM, 1200 nM) of the purified PLCγ1 cSH2. […] After 48h lysates were collected and analysed by Western blot using an antibody to PLCγ1 pY^783 to assess the level of PLCγ1 phosphorylation. (F) The intensities of the pPLCγ1 bands shown in panel E were quantified by densitometry, normalized to the values obtained with the empty vector (EV) in the presence of pK15, and plotted as relative values. […]
(§2) His-tagged PLCγ1 (SA, tSH2 or the isolated SH2 domains) was incubated at room temperature with GST-tagged K15P or its mutants for 1 hour. […] Emission at 615 nm was detected on BioTek Synergy 2 plate reader.

The test system of assay [3] is Src kinase. As to the kind of experiment: in vitro phosphorylation of pK15 CT by Src. Type of assay: biochemical. The settings on record: human GST-6xHis Src or chicken 2xStrep Src. An excerpt:
We expressed and purified the pK15 cytoplasmic tail (pK15 CT) fused to GST at its N-terminal end in bacteria and phosphorylated it in vitro using a commercially obtained human GST-6xHis Src, or a recombinant chicken 2xStrep Src kinase expressed in insect cells. In parallel, the GST-pK15 CT domain carrying the Y^481F mutation, or GST protein alone, were subjected to the same procedure. […] Following in vitro phosphorylation, pK15 CT^WT and pK15 CT^Y481F were used to pull down transiently expressed (Fig 2A) or endogenous (Fig 2B) PLCγ1 from HEK 293 lysates.
The GST-fused cytoplasmic tail of pK15 (GST-pK15 CT) was in vitro phosphorylated by recombinant human GST-6xHis Src kinase (ActiveMotif, 0.4 μg/ml per kinase reaction, 10 minutes at 30°C), or a recombinant chicken 2xStrep-Src kinase (10 μg/ml per kinase reaction, 30 minutes at 25°C). GST-pK15 CT was used at 4.8 μM or 6 μM and 50 μl or 100 μl reaction volumes for AlphaLISA and 3–6 μl glutathione beads with K15 and 25 μl reaction volume for GST pulldown experiments. […]
Supplementary file ppat.1009635.s001.tif: S1 Fig Both pK15 Y^431 and Y^481 are phosphorylated by recombinant Src kinase. […] Proteins were then analysed by WB using an antibody to pTyr. […]

Assay [4] relates to PLCγ1 nSH2 domain. Nature of the assay: AlphaLISA, isolated PLCγ1 nSH2. The conditions noted are these: phosphorylated; 300 nM each protein; domain tested individually. Type of assay: binding. Here is the method:
as §1, §2
On the technique in general: In Alpha technology, singlet oxygen from a donor bead excites a nearby acceptor bead.

B1: pK15 CT^WT: pK15 cytoplasmic tail fused to GST at its N-terminal end, phosphorylated in vitro by Src (protein)
chain: SQLLNEVELQEVNRDPPNVFGYASILVSGAEESREPSPQPDQSGMSILRVDGGSAFRIDTAQAATQPTDDLYEEVLFPRN
modifications: tyrosine-phosphorylated in vitro by Src; sites not stated for this construct; left off: GST, N-terminal, kept
With B1, the “binding of mutants (GST-pulldown)” value in assay [1] is reported as “moderately reduced binding”. Further, the “interaction (AlphaLISA)” value in assay [2] is “only the PLCγ1 cSH2 domain (and not the nSH2 domain) interacted”; in assay [2] (listed as pK15 CT^N2) it was “did interact with the tSH2 and cSH2 domains”; in assay [4] it was “not the nSH2 domain”. Also, in assay [3], the “pK15 bands detected after Src phosphorylation (pTyr Western blot)” value was “a dominant (bottom) and a minor (top) pK15 band”.

For the origin of these results see article PMC8244865, “Recruitment of phospholipase Cγ1 to the non-structural membrane protein pK15 of Kaposi Sarcoma-associated herpesvirus promotes its Src-dependent phosphorylation” (PLoS Pathogens, 2021).
